Results on two substances are retold here after patent EP0132021B1, “TGF polypeptides, antigenic oligopeptides derived therefrom and antibodies produced therefrom” (Todaro, George Joseph, priority 1983, dated 1985).

Assay [1] has as its target T1, EGF receptor sites on A431 human carcinoma cells (Homo sapiens, UniProt P00533).
T1 construct: Human epidermoid A431 cells have in excess of 10⁶ EGF receptors per cell; endogenous in cells; host or cells: A431 human epidermoid carcinoma cells (formalin-fixed in A1)
Kind of assay: 125I-EGF radioreceptor (binding competition) assay on formalin-fixed A431 cells. As for the experimental part:
Purified EGF was labeled with Na¹²⁵I by a modification of the chloramine-T method as described in DeLarco et al. (1978) Proc. Natl. Acad. Sci. USA 75, pp. 4001-4005. The ¹²⁵I-EGF binding assay was performed on subconfluent monolayers of formalin-fixed A431 human carcinoma cells as previously described (in DeLarco et al. (1980) J. of Biol. Chem. 255, pp. 3685-3690). The fixed cells were washed twice with 0.5 ml of binding buffer (Dulbecco's modified Eagle's medium containing 1 mg/ml of bovine serum albumin and 50 mM 2-[bis(2-hydroxyethyl)amino]ethanesulfonic acid, pH 6.8). Competitions were initiated by the addition of 0.2 ml of binding buffer containing 0.4 ng of ¹²⁵I-EGF with or without potential inhibitor. After incubation for 1 h at 22°C, the specifically bound ¹²⁵I-EGF was determined. The TGF content was expressed by its degree of inhibition of the binding of ¹²⁵I-EGF to the EGF receptor. One EGF-competing activity unit is defined as the amount of protein that inhibits the binding of ¹²⁵I-EGF to its receptor by 50%.
TGF was quantitated in a radioreceptor assay based on receptor crossreactivity with mouse submaxillary gland epidermal growth factor (mEGF). […]

The target of assay [2] is T2, tyrosine-specific protein kinase (Homo sapiens, UniProt P00533).
T2 construct: endogenous in cells; host or cells: human tumor cell membranes (said in the general description, not in the assay sentence)
Kind of assay: Stimulation of tyrosine-specific protein kinase (phosphorylation of synthetic angiotensinyl peptide substrate). Format: biochemical. The text has this: A consequence of TGF or EGF binding to the EGF membrane receptors is the stimulation of phosphorylation of tyrosine residues of synthetic peptides or endogenous substrates (Pike et al. (1982) J. Biol. Chem. 257, pp. 14628-14631).

The test system of another assay is NRK cells. In words: Soft agar transforming assay with fetal bovine serum and TGF-beta. Format: cell-based, rat. As to conditions: in the absence of TGF-beta. From the text:
Synthetic rTGF prepared in accordance with this Example was compared with natural rTGF in three assays for biological properties of the putative transforming growth factor.

[3] abbreviates: after oxidation and regeneration, prior to purification.

“regenerated, crude rTGF-I: crude synthetic rTGF oxidized and regenerated by the mixed disulfide method, prior to any purification”: the “EGF-radioreceptor activity when compared to the natural rTGF-I” value in assay [1] (setting [3]) is on record as 40-50%. In addition, the “tyrosine-specific protein kinase activity when compared to the natural rTGF-I” value in assay [2] (setting [3]) is recorded as 40-50%.
As for “synthetic rTGF: rat TGF made by stepwise solid-phase chemical synthesis, oxidized and purified to homogeneity”, the IC50 in assay [1] (A431 human carcinoma cells, read-out: concentration required for 50% inhibition of 125I-EGF binding) was 4.1 nM. The “transformation of NRK cells in culture” value with NRK cells is “does not produce such an effect”. Moreover, in assay [2] (read-out: half maximal activity, stimulation of phosphorylation of the synthetic angiotensinyl peptide substrate), the EC50 amounted to 0.3 nM.
